Measurements from patent US20240352452A1.

How the values were obtained:
Experiment in all cases: CasPlay immunoprecipitation of the virome-wide library (245,002 barcodes), z-score of gRNA barcodes
[1] = biological target: dCas9-FLAG peptide fusion (CasPlay library member, C-terminal 6His tag) (Streptococcus pyogenes) (UniProt Q99ZW2)
[2] = biological target: dCas9-HA epitope tag control peptide (CasPlay virome library) (Streptococcus pyogenes) (UniProt Q99ZW2)
[3] = biological target: dCas9-myc epitope tag control peptide (CasPlay virome library) (Streptococcus pyogenes) (UniProt Q99ZW2)

For anti-FLAG M2 antibody, the rank of z-score among all peptides of the library [1] was under 0.2%.

anti-HA antibody (Cell Signaling C29F4) gave a rank of z-score among all peptides of the library [2] of under 0.2%.

Work on anti-myc antibody (Abcam ab9106) yielded a rank of z-score among all peptides of the library [3] of under 0.2%.
